Assay results from paper PMC5923263.
Each block holds one substance with its values, some of them ahead of it.

Experiments:
[1] = molecular target: His-tagged Sll1961 (wild type) (Synechocystis sp. PCC 6803); assay: SEC; His-Sll1961 reduced with 100 mM DTT for 15 min at room temperature, 60 μM; Superdex 75 increase 3.2/300 or Superdex 200 increase 3.2/300; 20 mM sodium phosphate (pH 7.4), 150 mM NaCl, 3 mM DTT; standards of 150, 66 and 44 kDa
[2] = molecular target: His-tagged Sll1961 (wild type) (Synechocystis sp. PCC 6803); assay: SEC-MALS; size exclusion chromatography with static light scattering (Viscotek TDA 305), Superdex 75 increase 3.2/300; BSA as standard
[3] = molecular target: His-tagged Sll1961 C124A (Synechocystis sp. PCC 6803); assay: SEC; His-Sll1961 reduced with 100 mM DTT for 15 min at room temperature, 60 μM; Superdex 75 increase 3.2/300 or Superdex 200 increase 3.2/300; 20 mM sodium phosphate (pH 7.4), 150 mM NaCl, 3 mM DTT; standards of 150, 66 and 44 kDa
[4] = molecular target: His-tagged Sll1961 C124A (Synechocystis sp. PCC 6803); assay: SEC-MALS; size exclusion chromatography with static light scattering (Viscotek TDA 305), Superdex 75 increase 3.2/300; BSA as standard
[5] = molecular target: His-tagged Sll1961 C229A (Synechocystis sp. PCC 6803); assay: SEC; His-Sll1961 reduced with 100 mM DTT for 15 min at room temperature, 60 μM; Superdex 75 increase 3.2/300 or Superdex 200 increase 3.2/300; 20 mM sodium phosphate (pH 7.4), 150 mM NaCl, 3 mM DTT; standards of 150, 66 and 44 kDa
[6] = molecular target: His-tagged Sll1961 C229A (Synechocystis sp. PCC 6803); assay: SEC-MALS; size exclusion chromatography with static light scattering (Viscotek TDA 305), Superdex 75 increase 3.2/300; BSA as standard
[7] = molecular target: His-tagged Sll1961 C307A (Synechocystis sp. PCC 6803); assay: SEC; His-Sll1961 reduced with 100 mM DTT for 15 min at room temperature, 60 μM; Superdex 75 increase 3.2/300 or Superdex 200 increase 3.2/300; 20 mM sodium phosphate (pH 7.4), 150 mM NaCl, 3 mM DTT; standards of 150, 66 and 44 kDa
[8] = molecular target: His-tagged Sll1961 C307A (Synechocystis sp. PCC 6803); assay: SEC-MALS; size exclusion chromatography with static light scattering (Viscotek TDA 305), Superdex 75 increase 3.2/300; BSA as standard

stoichiometry N [1]: 2
stoichiometry N [2]: 2
Substance: His-tagged Sll1961 (wild type) (natural protein)

stoichiometry N [3]: 2
stoichiometry N [4]: 2
Substance: His-tagged Sll1961 C124A (natural protein)

stoichiometry N [5]: 2
stoichiometry N [6]: 2
Substance: His-tagged Sll1961 C229A (natural protein)

stoichiometry N [7]: 2
stoichiometry N [8]: 2
Substance: His-tagged Sll1961 C307A (natural protein)
